Assay results: article PMC4917396
“And” between values parts separate entries of the source, which are not always exact repeats. Equal entries are not always repeated.

What was measured:
[1] = biological target: recombinant full-length murine amelogenin without tag (rpM179) (mouse); experiment: in situ AFM with volume analysis of adsorbates
[2] = biological target: recombinant full-length murine amelogenin without tag (rpM179) (mouse); experiment: DLS
[3] = biological target: recombinant full-length murine amelogenin without tag (rpM179) (mouse); experiment: in situ AFM with volume analysis of adsorbates; remark: listed apart in the source
[4] = biological target: recombinant full-length murine amelogenin without tag (rpM179) (mouse); experiment: in situ AFM with volume analysis of adsorbates; remark: listed apart in the source
[5] = biological target: recombinant full-length murine amelogenin without tag (rpM179) (mouse); experiment: in situ AFM coverage with Hill fit
[6] = biological target: recombinant full-length murine amelogenin with an uncleavable N-terminal histidine tag (rp(H)M180) (mouse); experiment: in situ AFM with volume analysis of adsorbates
[7] = biological target: recombinant full-length murine amelogenin with an uncleavable N-terminal histidine tag (rp(H)M180) (mouse); experiment: in situ AFM coverage with Hill fit

| stoichiometry N [1] [monomers] | stoichiometry N [2] [monomers] | stoichiometry N [3] | stoichiometry N [4] [monomers] | ln Ka [5] [Ka in M^-n] | stoichiometry N [6] [monomers] | ln Ka [7] [Ka in M^-n] | Substance |
| --- | --- | --- | --- | --- | --- | --- | --- |
| 150 | 200 | 100 monomers and 200 monomers | 25 | 3.35 | – | – | recombinant full-length murine amelogenin without tag (rpM179) (natural protein) |
| – | – | – | – | – | 25 | 76.2 | recombinant full-length murine amelogenin with an uncleavable N-terminal histidine tag (rp(H)M180) (natural protein) |
